# Test results: patent US20170334973A1
# Key:
# [1] = target: BDBV GP (Bundibugyo virus (BDBV)); test: ELISA, purified mAb
# [2] = target: BDBV GP (Bundibugyo virus (BDBV)); test: GP ELISA, purified mAb
# Chain of FVM09 (antibody) (VH): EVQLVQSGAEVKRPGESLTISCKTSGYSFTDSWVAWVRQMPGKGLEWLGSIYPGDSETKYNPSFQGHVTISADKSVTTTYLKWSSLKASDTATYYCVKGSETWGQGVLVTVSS
# Chain of FVM09 (antibody) (V domain): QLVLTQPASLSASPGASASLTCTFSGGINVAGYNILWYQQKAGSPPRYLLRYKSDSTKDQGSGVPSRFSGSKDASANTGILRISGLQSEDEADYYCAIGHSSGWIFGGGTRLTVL
substance,measurement,setting,value
FVM09 (antibody),EC50,[1],< 0.015 µg/mL
same,EC50,[2],0.02 µg/mL
